No end group written: not given here.
Columns and labels:
annexin A2 = experiment: EPR binding of L2 peptide to annexin A2; conditions: scrambled competitor 5∶1
Description: (§1) Recombinant annexin A2 was expressed in BL21(DE3) Escherichia coli cells and purified using reversible Ca^2+-dependent binding to negatively charged phospholipid vesicles followed by size exclusion chromatography. A pET23A vector containing the S100A10 sequence (a gift from Volker Gerke) was expressed in BL21(DE3) cells as previously described. Both proteins were stored at 4°C in 20 mM HEPES buffer at pH 7.4, containing 100 mM NaCl with the addition of 1 mM dithiothreitol. Concentrations of all proteins and peptides, including the A2t complex, were determined using bicinchoninic acid assays (Pierce Thermo Scientific, Rockford, IL) compared to measured absorbance of albumin standards at 562 nm. Purified annexin A2 and S100A10 were combined at a molar ratio of 1∶1 and concentrated to over 8 µg/µl. The mixture was incubated overnight at 4°C, and then loaded onto a superdex 200 10/300 GL (GE Healthcare USA) column equilibrated in the previously mentioned HEPES buffer. The eluted A2t peak was collected and subjected to peptide binding assays.
The L2_108–126 peptides used in our EPR studies were synthesized with a cysteine at the N-terminus, and followed by a spacer of 3 physiological amino acids (C-IVS) preceding the canonical L2_108–126 and L2 scrambled sequences (C-IVS-[…] and C-IVS-[…] respectively). Peptides were combined with 8× molar excess paramagnetic label (1-oxyl-2, 2, 5, 5-tetramethyl-Δ3-pyrroline-3-methyl) (R1) methanethiosulfonate (MTSL), (Toronto Research Chemicals, Canada) and left to react overnight at 4°C. Free label was removed by gel filtration (PD10 GE, United Kingdom). All peptides were solubilized into HEPES buffer. For competition assays, the scrambled peptide was non-paramagnetic labeled with an N-acetylated MTSL paramagnetic-label analog (1-acetyl-2,2,5,5- tetramethyl-Δ3-pyrroline-3-methyl) (R1′) at an 8× molar excess to emulate the paramagnetic label on control peptides. Binding interactions were examined by combining paramagnetically-labeled L2 peptide with A2t, BSA, ANXA2, or S100A10 (20 µM, 100 µM, 100 µM, 100 µM, and 100 µM respectively) in 10 µL volumes of the HEPES buffer, confined by glass capillaries, and measured at room temperature over a period of 24 hours using a Bruker EMX X-band EPR spectrometer. For the cysteine blocked S100A10, S100A10 was treated with R1′ and excess label was removed via gel filtration (see above) before the addition of paramagnetic labeled peptides. […] To quantify the amount of bound peptide spectra of all tested proteins in combination with the L2_108–126 or ScrL2 peptides were compared to the spectra of L2_108–126 or ScrL2 peptides alone in solution using a spectra analyzing software (EPR 130, University of California, Los Angeles). […]

S100A10 subunit of A2t = experiment: EPR binding of L2 peptide to S100A10; conditions: EPR
Description: as §1
The L2_108–126 peptides used in our EPR studies were synthesized with a cysteine at the N-terminus, and followed by a spacer of 3 physiological amino acids (C-IVS) preceding the canonical L2_108–126 and L2 scrambled sequences (C-IVS-[…] and C-IVS-[…] respectively). Peptides were combined with 8× molar excess paramagnetic label (1-oxyl-2, 2, 5, 5-tetramethyl-Δ3-pyrroline-3-methyl) (R1) methanethiosulfonate (MTSL), (Toronto Research Chemicals, Canada) and left to react overnight at 4°C. Free label was removed by gel filtration (PD10 GE, United Kingdom). All peptides were solubilized into HEPES buffer. For competition assays, the scrambled peptide was non-paramagnetic labeled with an N-acetylated MTSL paramagnetic-label analog (1-acetyl-2,2,5,5- tetramethyl-Δ3-pyrroline-3-methyl) (R1′) at an 8× molar excess to emulate the paramagnetic label on control peptides. Binding interactions were examined by combining paramagnetically-labeled L2 peptide with A2t, BSA, ANXA2, or S100A10 (20 µM, 100 µM, 100 µM, 100 µM, and 100 µM respectively) in 10 µL volumes of the HEPES buffer, confined by glass capillaries, and measured at room temperature over a period of 24 hours using a Bruker EMX X-band EPR spectrometer. For the cysteine blocked S100A10, S100A10 was treated with R1′ and excess label was removed via gel filtration (see above) before the addition of paramagnetic labeled peptides. The experiments were done in triplicate with measurements taken at 12 db, in 5 scan intervals. All spectra were normalized to the same number of scans. To quantify the amount of bound peptide spectra of all tested proteins in combination with the L2_108–126 or ScrL2 peptides were compared to the spectra of L2_108–126 or ScrL2 peptides alone in solution using a spectra analyzing software (EPR 130, University of California, Los Angeles). By subtracting the alone peptide spectra from that of the combined samples we derive the spectra of the bound spectra, and based on double integration, relate this spectra to a concentration of the peptide that bound to the target protein.

[1] = test system: A2t (annexin A2 heterotetramer); experiment: EPR binding of L2 peptide to A2t; parameters: species or system human; conditions: scrambled competitor 5∶1 molar ratio
Source text: Next, we wanted to determine if there was a specific interaction between the L2_108–126 peptide and A2t using electron paramagnetic resonance (EPR) spectroscopy. EPR is a method of magnetic resonance spectroscopy measuring unpaired electrons whose underlying basic concepts are not unlike the more widely used technique of nuclear magnetic resonance (NMR) (reviewed in [43]). When coupled with site-directed paramagnetic-labeling, such as the attachment of a moiety with an unpaired electron to a cysteine residue, EPR can be used to obtain structural information within a small vicinity of the paramagnetic-label’s positions along the protein sequence. As a paramagnetic-label becomes locally constrained, such as when bound to another protein, its spectra will drastically change as visualized by a decrease in line amplitude and increased line-broadening. Therefore, EPR provides an in vitro biochemical method that measures protein-protein interactions by monitoring changes in the spectra recorded for a labeled protein in different experimental settings.
For our purposes, an N-terminal cysteine (with a 3 native aa spacer) contained in the L2_108–126 peptide (C-IVS-[…]) was paramagnetic-labeled (an unpaired-electron-containing small molecule was cross-linked via a disulfide bond to the peptide), and its spectra were analyzed after incubation with and without purified human recombinant A2t or controls. […]
Recombinant annexin A2 was expressed in BL21(DE3) Escherichia coli cells and purified using reversible Ca^2+-dependent binding to negatively charged phospholipid vesicles followed by size exclusion chromatography. […] Concentrations of all proteins and peptides, including the A2t complex, were determined using bicinchoninic acid assays (Pierce Thermo Scientific, Rockford, IL) compared to measured absorbance of albumin standards at 562 nm. […]

[2] = test system: HPV16 infection of COS-1 cells; conditions: pre-incubation, compared to control peptides; ref [28]; cited from earlier work
Source text: Though the interaction between L1 and HSPG appears to be the primary initiator of epithelial cell infection, the electrostatic interaction to the negatively charged polysaccharides is generally thought to be non-specific, and may lead to a cascade of subsequent capsid conformational changes.

recombinant annexin A2 [3] = molecular target: T1, recombinant annexin A2 (human, UniProt P07355 1-339); experiment: electron paramagnetic resonance (EPR) spectroscopy; conditions: both partners purified
T1 construct: also called ANXA2; annexin A2 subunit

[4] = molecular target: T2, annexin A2 heterotetramer (A2t), purified human recombinant (human, UniProt P07355 1-339; P60903 1-97); experiment: electron paramagnetic resonance (EPR) spectroscopy; conditions: both partners purified
T2 construct: also called A2t complex

recombinant S100A10 [5] = molecular target: T3, recombinant S100A10 (human, UniProt P60903 1-97); experiment: electron paramagnetic resonance (EPR) spectroscopy; conditions: both partners purified
T3 construct: also called S100A10 subunit; p11; source: E. coli BL21(DE3), pET23A vector, purified

recombinant annexin A2 [6] = molecular target: T1, recombinant annexin A2; experiment: electron paramagnetic resonance (EPR) spectroscopy; paramagnetic-labeled peptide (20 µM) mixed with protein (100 µM) in 10 µL HEPES buffer (20 mM HEPES pH 7.4, 100 mM NaCl) in glass capillaries, room temperature; percent bound from subtraction of the free-peptide spectrum and double integration; 'relative' binding constant K = [AB]/[A][B]; conditions: both partners purified
[7] = molecular target: T2, annexin A2 heterotetramer (A2t), …; experiment: as above; conditions: both partners purified
recombinant S100A10 [8] = molecular target: T3, recombinant S100A10; experiment: as above; conditions: both partners purified
[9] = molecular target: T4, cysteine-blocked S100A10 (αCys-S100A10) (human, UniProt P60903 1-97); experiment: as above; conditions: both partners purified
T4 construct: source: E. coli BL21(DE3), purified, then treated with R1′ and gel filtered

[10] = molecular target: T2, annexin A2 heterotetramer (A2t), …; experiment: cell-based or functional assay

T3 sequence (P60903 whole entry): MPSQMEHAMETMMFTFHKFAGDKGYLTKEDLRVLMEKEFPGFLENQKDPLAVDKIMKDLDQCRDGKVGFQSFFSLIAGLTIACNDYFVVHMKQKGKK
T2 sequence (P07355 whole entry, chain 1 of 2): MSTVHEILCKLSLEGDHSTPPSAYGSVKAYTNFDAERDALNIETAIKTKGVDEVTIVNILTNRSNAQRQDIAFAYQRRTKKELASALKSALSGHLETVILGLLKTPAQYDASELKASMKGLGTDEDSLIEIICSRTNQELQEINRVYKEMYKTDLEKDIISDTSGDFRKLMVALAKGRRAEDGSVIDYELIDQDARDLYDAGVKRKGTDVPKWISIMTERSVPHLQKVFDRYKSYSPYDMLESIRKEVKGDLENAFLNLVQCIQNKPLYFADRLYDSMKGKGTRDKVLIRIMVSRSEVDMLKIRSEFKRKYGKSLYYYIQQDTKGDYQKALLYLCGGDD
T2 sequence (P60903 whole entry, chain 2 of 2): as the sequence (P60903 whole entry) above
T1 sequence (P07355 whole entry): as the sequence (P07355 whole entry, chain 1 of 2) above
T4 sequence (P60903 whole entry): as the sequence (P60903 whole entry) above

C-IVS-IESPVSDTALGTPEIFVSA [ScrL2, scrambled version of the L2_108–126 peptide, reference compound]
competition for L2 peptide – annexin A2 interaction (annexin A2): partially competed off | relative % bound to cysteine-blocked S100A10 (S100A10 subunit of A2t; S100A10 cysteine-blocked with R1′ (αCys-S100A10), paramagnetic-labeled peptide, mean of three separate experiments): 6.3% | competition for L2 peptide – S100A10 interaction (S100A10 subunit of A2t; scrambled competitor 5∶1): minimally competed off | competition for L2_108–126 – A2t interaction [1]: No significant changes in spectra signal were observed

L2_108–120: L2_108–120 peptide of ref 28 (LVEETSFIDAGAP; UniProt P03107 108-120, looked up, fragment)
reduction of infection of COS-1 cells [2]: approximately 60%

B1: HPV16 L2_(108–126) peptide, paramagnetic-labeled (C-IVS-LVEETSFIDAGAPTSVPSI) (peptide)
peptide: CIVSLVEETSFIDAGAPTSVPSI
modifications: also: paramagnetic label, site not given here
notes: source: synthetic peptide (Synthetic Biomolecules or Biomer Technology), HPLC purified to >95%
percent of peptide bound with ScrL2 at 5:1 (recombinant annexin A2 [3]): 17.7% | percent of peptide bound with ScrL2 at 5:1 [4]: 75.8% | percent of peptide bound with ScrL2 at 5:1 (recombinant S100A10 [5]): 91% | percent of peptide bound (recombinant annexin A2 [6]): 23.6% | Ka [7]: 100000 M⁻¹ | percent of peptide bound [7]: 78% | Ka (recombinant S100A10 [8]): 150000 M⁻¹ | percent of peptide bound (recombinant S100A10 [8]): 92.5% | percent of peptide bound [9]: 73.1%

B2: HPV16 L1–L2(GGDD) mutant pseudovirions (complex, human papillomavirus type 16)
chain 1: MSLWLPSEATVYLPPVPVSKVVSTDEYVARTNIYYHAGTSRLLAVGHPYFPIKKPNNNKILVPKVSGLQYRVFRIHLPDPNKFGFPDTSFYNPDTQRLVWACVGVEVGRGQPLGVGISGHPLLNKLDDTENASAYAANAGVDNRECISMDYKQTQLCLIGCKPPIGEHWGKGSPCTNVAVNPGDCPPLELINTVIQDGDMVDTGFGAMDFTTLQANKSEVPLDICTSICKYPDYIKMVSEPYGDSLFFYLRREQMFVRHLFNRAGAVGENVPDDLYIKGSGSTANLASSNYFPTPSGSMVTSDAQIFNKPYWLQRAQGHNNGICWGNQLFVTVVDTTRSTNMSLCAAISTSETTYKNTNFKEYLRHGEEYDLQFIFQLCKITLTADVMTYIHSMNSTILEDWNFGLQPPPGGTLEDTYRFVTSQAIACQKHTPPAPKEDPLKKYTFWEVNLKEKFSADLDQFPLGRKFLLQAGLKAKPKFTLGKRKATPTTSSTSTTAKRKKRKL
chain 2: MRHKRSAKRTKRASATQLYKTCKQAGTCPPDIIPKVEGKTIAEQILQYGSMGVFFGGLGIGTGSGTGGRTGYIPLGTRPPTATDTLAPVRPPLTVDPVGPSDPSIVSGGDDTSFIDAGAPTSVPSIPPDVSGFSITTSTDTTPAILDINNTVTTVTTHNNPTFTDPSVLQPPTPAETGGHFTLSSSTISTHNYEEIPMDTFIVSTNPNTVTSSTPIPGSRPVARLGLYSRTTQQVKVVDPAFVTTPTKLITYDNPAYEGIDVDNTLYFSSNDNSINIAPDPDFLDIVALHRPALTSRRTGIRYSRIGNKQTLRTRSGKSIGAKVHYYYDLSTIDPAEEIELQTITPSTYTTTSHAASPTSINNGLYDIYADDFITDTSTTPVPSVPSTSLSGYIPANTTIPFGGAYNIPLVSGPDIPINITDQAPSLIPIVPGSPQYTIIADAGDFYLHPSYYMLRKRRKRLPYFFSDVSLAA
pseudo-infection of HaCaT cells (percent GFP-positive, 48 h) by the mutant PsV against wild-type PsV [10]: > 10 fold reduction
